The results in this text go back to US20250101135A1 (Hoffmann-La Roche, published 2025).

Experiment [1] addresses T1, human CD19 on B cell lymphoma and leukemia cell lines (human, UniProt P15391 20-556).
T1 construct: also called SU-DHL-8; Nalm6
T1 sequence: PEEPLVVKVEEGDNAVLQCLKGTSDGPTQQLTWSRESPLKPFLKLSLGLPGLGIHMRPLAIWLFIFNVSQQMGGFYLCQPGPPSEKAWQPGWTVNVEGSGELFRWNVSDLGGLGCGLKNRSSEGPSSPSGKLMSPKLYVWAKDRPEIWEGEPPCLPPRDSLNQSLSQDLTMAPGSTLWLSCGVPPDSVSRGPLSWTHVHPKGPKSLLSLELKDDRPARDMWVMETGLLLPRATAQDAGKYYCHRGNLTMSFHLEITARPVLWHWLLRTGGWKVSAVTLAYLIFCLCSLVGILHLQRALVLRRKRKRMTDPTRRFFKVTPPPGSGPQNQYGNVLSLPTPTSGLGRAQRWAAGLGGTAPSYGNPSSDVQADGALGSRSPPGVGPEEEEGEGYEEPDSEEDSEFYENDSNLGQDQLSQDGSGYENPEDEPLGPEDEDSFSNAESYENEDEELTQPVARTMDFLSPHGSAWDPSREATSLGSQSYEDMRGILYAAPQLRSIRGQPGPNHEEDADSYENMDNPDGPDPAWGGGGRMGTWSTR
The experiment is described as follows: flow cytometry on OCI-Ly18 cells.

The target of experiment [2] is T1, human CD19 on B cell lymphoma and …. Description: flow cytometry on Nalm6 cells.
The target of experiment [3] is T2, monomeric human CD19 antigen Fc(kih) fusion molecule (human, UniProt P0DOX5 223-449 = IgG part).
T2 construct: also called monomeric CD19-Fc; human CD19-Fc(kih)
Description: SPR Biacore T200, captured via anti-human Fab, human CD19-Fc(kih) analyte.

In experiment [4] the target is T1, human CD19 on B cell lymphoma and …. The experiment is described as follows: flow cytometry on SU-DHL-8 cells.
The target of experiment [5] is T3, human 4-1BB (CD137) on cells (human, UniProt Q07011 24-255).
T3 construct: whole, on cells; also called 4-1BB+CD8+; 4-1BB+CD4+
T3 sequence (Q07011 24-255): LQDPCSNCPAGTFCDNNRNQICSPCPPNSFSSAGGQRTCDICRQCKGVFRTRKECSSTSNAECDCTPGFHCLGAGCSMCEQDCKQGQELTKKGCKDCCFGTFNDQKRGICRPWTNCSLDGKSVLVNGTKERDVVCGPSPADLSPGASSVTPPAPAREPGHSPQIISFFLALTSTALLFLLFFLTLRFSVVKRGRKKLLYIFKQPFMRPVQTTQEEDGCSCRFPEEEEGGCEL
Description: flow cytometry, activated human PBMC, CD4+ T cells (panel title MFI CD4), PE anti-human IgG Fc secondary.

Experiment [6] has as its target T1, human CD19 on B cell lymphoma and …. Description: flow cytometry on Toledo cells.
For another experiment, the target named is T4, cyCD19 ECD (cynomolgus).
T4 construct: extracellular domain; also called cynomolgus CD19
Description: binding to CD19 ECD, assay not described.

The target of a further experiment is T5, huCD19 ECD (human, UniProt P15391 20-291).
T5 construct: extracellular domain
T5 sequence (looked up): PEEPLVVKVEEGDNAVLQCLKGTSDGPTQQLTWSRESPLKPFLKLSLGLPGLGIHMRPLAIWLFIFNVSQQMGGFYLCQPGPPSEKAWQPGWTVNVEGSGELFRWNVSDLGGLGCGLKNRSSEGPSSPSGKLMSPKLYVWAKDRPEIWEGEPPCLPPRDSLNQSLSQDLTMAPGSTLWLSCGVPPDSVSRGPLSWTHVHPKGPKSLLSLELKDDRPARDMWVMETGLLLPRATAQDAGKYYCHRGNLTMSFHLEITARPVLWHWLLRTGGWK
Description: binding to CD19 ECD, assay not described.

In experiment [7] the target is T6, human CD19 (recombinant, form not given) (human, UniProt P15391 20-291, limits assumed).
T6 construct: also called huCD19
T6 sequence (looked up): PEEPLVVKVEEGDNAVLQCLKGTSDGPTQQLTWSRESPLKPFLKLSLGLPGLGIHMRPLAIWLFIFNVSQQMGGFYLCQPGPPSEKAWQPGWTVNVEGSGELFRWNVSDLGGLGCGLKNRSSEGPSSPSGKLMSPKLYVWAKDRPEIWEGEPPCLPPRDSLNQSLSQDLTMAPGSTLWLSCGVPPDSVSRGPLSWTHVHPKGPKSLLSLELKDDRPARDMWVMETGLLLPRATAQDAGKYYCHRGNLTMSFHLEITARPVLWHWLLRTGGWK
Description: BIACORE (SPR), format not described.

The target in experiment [8] is T6, human CD19 (recombinant, form not …). The experiment is described as follows: relative binding after incubation, method not described.
The target of experiment [9] is T7, human CEA (CEACAM5) on tumor cells (human, UniProt P06731 35-685).
T7 construct: also called MKN45; MKN-45
T7 sequence: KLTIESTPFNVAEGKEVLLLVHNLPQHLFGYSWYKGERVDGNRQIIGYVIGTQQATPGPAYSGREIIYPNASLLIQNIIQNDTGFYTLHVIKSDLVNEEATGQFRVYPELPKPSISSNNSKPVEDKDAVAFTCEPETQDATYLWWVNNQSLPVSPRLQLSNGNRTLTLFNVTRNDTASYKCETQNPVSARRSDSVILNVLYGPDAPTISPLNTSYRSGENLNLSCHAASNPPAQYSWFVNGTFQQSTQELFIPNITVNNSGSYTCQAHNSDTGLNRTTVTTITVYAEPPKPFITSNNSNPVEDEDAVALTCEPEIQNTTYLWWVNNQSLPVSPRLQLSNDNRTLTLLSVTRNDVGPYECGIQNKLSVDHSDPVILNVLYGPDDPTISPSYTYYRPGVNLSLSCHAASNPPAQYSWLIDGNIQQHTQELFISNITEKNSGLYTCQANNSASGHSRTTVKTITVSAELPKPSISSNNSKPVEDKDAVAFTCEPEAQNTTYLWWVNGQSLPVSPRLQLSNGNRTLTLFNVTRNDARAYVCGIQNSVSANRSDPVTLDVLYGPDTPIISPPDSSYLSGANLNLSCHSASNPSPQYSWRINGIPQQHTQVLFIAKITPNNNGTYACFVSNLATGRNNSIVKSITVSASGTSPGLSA
The experiment is described as follows: flow cytometry on CEA-expressing MKN45 cells.

B1: anti-CD19(8B8-018) huIgG1 PGLALA (control G) (antibody, V domains shown)
VH: QVQLVQSGAEVKKPGASVKVSCKASGYTFTDYIMHWVRQAPGQGLEWMGYINPYNDGSKYTEKFQGRVTMTSDTSISTAYMELSRLRSDDTAVYYCARGTYYYGSALFDYWGQGTTVTVSS
VL: DIVMTQTPLSLSVTPGQPASISCKSSQSLENPNGNTYLNWYLQKPGQSPQLLIYRVSKRFSGVPDRFSGSGSGTDFTLKISRVEAEDVGVYYCLQLTHVPYTFGQGTKLEIKR
B1: the half-maximal effective concentration (EC50) was found to be 0.07 nM in experiment [1], 0.1 nM in [2], 0.09 nM in [4] and 0.06 nM in experiment [6]. Further, binding in [3] was characterised by a dissociation constant (Kd) of 12.3 nM. Besides, the koff in experiment [3] is 0.000261 s⁻¹. Besides, the kon in [3] was 21200 M⁻¹ s⁻¹. Besides, the binding result in [5] was “no binding (tested: about 300 nM)”.

B2: humanized anti-human CD19 antibody var.5 (S27eP), named clone 8B8-018 (antibody, V domains shown)
VH: QVQLVQSGAEVKKPGASVKVSCKASGYTFTDYIMHWVRQAPGQGLEWMGYINPYNDGSKYTEKFQGRVTMTSDTSISTAYMELSRLRSDDTAVYYCARGTYYYGSALFDYWGQGTTVTVSS
VL: DIVMTQTPLSLSVTPGQPASISCKSSQSLENPNGNTYLNWYLQKPGQSPQLLIYRVSKRFSGVPDRFSGSGSGTDFTLKISRVEAEDVGVYYCLQLTHVPYTFGQGTKLEIK
notes: 5 is named clone 8B8-018; also called variant 5
Regarding B2, the half-maximal effective concentration (EC50) with cyCD19 ECD stood at 0.255 µg/mL. The molecule further yielded an EC50 in the experiment with huCD19 ECD of 0.084 µg/mL. In experiment [7], the Kd amounted to 6 nM and the “t1/2” value came to 43.6 min. In [8], the “human CD19 binding after pH 6.0 incubation [%]” value is 99% and the “human CD19 binding after pH 7.4 incubation [%]” value stood at 95%.

B3: humanized anti-human CD19 antibody var.9 (S27eP/N28S) (antibody, V domains shown)
VH: QVQLVQSGAEVKKPGASVKVSCKASGYTFTDYIMHWVRQAPGQGLEWMGYINPYNDGSKYTEKFQGRVTMTSDTSISTAYMELSRLRSDDTAVYYCARGTYYYGSALFDYWGQGTTVTVSS
VL: DIVMTQTPLSLSVTPGQPASISCKSSQSLENPSGNTYLNWYLQKPGQSPQLLIYRVSKRFSGVPDRFSGSGSGTDFTLKISRVEAEDVGVYYCLQLTHVPYTFGQGTKLEIK
notes: also called variant 9
In the experiment with cyCD19 ECD, B3 gave an EC50 of 0.435 µg/mL. Also, the half-maximal effective concentration (EC50) with huCD19 ECD is 0.089 µg/mL. Also, in experiment [7], the dissociation constant (Kd) worked out at 45 nM and the “t1/2” value was 4 min. In addition, the “human CD19 binding after pH 6.0 incubation [%]” value in experiment [8] was found to be 87%.

B4: Humanized variant 1 of T84.66 IgG (T84.66-LCHA) (antibody, V domains shown)
VH: QVQLVQSGAEVKKPGSSVKVSCKASGFNIKDTYMHWVRQAPGQGLEWMGRIDPANGNSKYVPKFQGRVTITADTSTSTAYMELSSLRSEDTAVYYCAPFGYYVSDYAMAYWGQGTLVTVSS
VL: EIVLTQSPATLSLSPGERATLSCRAGESVDIFGVGFLHWYQQKPGQAPRLLIYRASNRATGIPARFSGSGSGTDFTLTISSLEPEDFAVYYCQQTNEDPYTFGQGTKLEIK
notes: IgG
The molecule B4 showed a half-maximal effective concentration (EC50) in experiment [9] of 1.5 µg/mL.
